What was measured:
[1] = system: HeLa Kyoto; assay: solubility in G1/S (NP-40 vs SDS abundance) (log2 ratio); higher = more soluble; settings: cell cycle stage: G1/S
[2] = system: HeLa Kyoto; assay: solubility change mitosis vs G1/S (difference of NP-40 vs SDS log2 ratios) (log2 ratio difference); higher = more soluble in mitosis
[3] = system: HeLa Kyoto; assay: thermal stability score vs G1/S (z-score of summed log2 fold changes over temperatures); higher = more thermally stable than in G1/S
[4] = cell cycle stage: early G1 (4.5 h after nocodazole release)
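For solubility change mitosis vs G1/S (difference of NP-40 vs SDS log2 ratios) in this document: synchronized HeLa Kyoto cells (double thymidine block for G1/S, nocodazole release for mitosis), protein amounts in NP-40 versus SDS lysates quantified by mass spectrometry, three biological replicates.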
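For solubility in G1/S (NP-40 vs SDS abundance) in this document: HeLa Kyoto cells arrested at G1/S by double thymidine block, proteins quantified by TMT10plex mass spectrometry in mild NP-40 versus SDS extracts, three biological replicates.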
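For thermal stability score vs G1/S (z-score of summed log2 fold changes over temperatures) in this document: synchronized HeLa Kyoto cells, proteins quantified by TMT10plex mass spectrometry, three biological replicates, mitosis taken 0.5 h after nocodazole release, G1/S directly after double thymidine block.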

Chain of BMS1 (chain, as listed by the source): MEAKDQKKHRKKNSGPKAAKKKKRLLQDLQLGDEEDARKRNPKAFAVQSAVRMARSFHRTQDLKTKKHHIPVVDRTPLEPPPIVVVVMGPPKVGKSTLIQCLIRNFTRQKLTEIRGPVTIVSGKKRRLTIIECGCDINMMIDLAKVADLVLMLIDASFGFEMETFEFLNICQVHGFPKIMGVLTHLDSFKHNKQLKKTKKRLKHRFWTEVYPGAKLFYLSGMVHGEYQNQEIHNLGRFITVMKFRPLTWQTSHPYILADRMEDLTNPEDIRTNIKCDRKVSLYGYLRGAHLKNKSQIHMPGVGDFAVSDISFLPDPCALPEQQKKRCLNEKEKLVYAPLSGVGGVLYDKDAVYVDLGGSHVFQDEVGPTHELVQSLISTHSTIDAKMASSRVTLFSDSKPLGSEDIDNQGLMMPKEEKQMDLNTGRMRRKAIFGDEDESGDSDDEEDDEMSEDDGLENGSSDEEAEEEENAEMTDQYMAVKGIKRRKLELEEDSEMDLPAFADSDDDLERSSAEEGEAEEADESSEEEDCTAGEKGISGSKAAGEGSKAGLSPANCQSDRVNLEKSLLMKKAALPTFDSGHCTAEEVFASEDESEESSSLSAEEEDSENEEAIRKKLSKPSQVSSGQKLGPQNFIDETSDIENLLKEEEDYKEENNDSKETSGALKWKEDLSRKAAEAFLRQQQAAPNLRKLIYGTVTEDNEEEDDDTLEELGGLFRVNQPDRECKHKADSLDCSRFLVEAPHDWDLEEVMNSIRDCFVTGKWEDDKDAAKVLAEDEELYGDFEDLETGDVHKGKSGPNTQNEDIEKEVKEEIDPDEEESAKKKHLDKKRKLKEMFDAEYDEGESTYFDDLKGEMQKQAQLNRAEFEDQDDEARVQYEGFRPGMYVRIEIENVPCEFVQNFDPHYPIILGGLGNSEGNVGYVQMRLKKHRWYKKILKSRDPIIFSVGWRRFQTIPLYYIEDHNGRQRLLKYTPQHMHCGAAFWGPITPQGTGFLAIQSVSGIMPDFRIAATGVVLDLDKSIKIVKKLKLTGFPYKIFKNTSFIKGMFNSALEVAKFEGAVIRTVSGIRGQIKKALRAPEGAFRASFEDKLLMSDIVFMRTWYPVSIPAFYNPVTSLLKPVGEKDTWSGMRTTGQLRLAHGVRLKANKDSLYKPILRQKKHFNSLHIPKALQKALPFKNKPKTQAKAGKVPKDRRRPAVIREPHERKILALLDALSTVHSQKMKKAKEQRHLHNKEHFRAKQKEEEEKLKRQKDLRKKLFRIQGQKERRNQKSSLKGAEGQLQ

Substance | solubility in G1/S (log2) [1] | solubility change mitosis (log2) [2] | thermal stability score [3, 4] | thermal stability score ([3]; cell cycle stage: mitosis)
MGKRDNRVAYMNPIAMARSRGPIQSSGPTIQDYLNRPRPTWEEVKEQLEKKKKGSKALAEFEEKMNENWKKELEKHREKLLSGSESSSKKRQRKKKEKKKSGRYSSSSSSSSDSSSSSSDSEDEDKKQGKRRKKKKNRSHKSSESSMSETESDSKDSLKKKKKSKDGTEKEKDIKGLSKKRKMYSEDKPLSSESLSESEYIEEVRAKKKKSSEEREKATEKTKKKKKHKKHSKKKKKKAASSSPDSP [FAM133B] | -1.16 | 0.889 | -5.3 | -3.34
MIPVSLVVVVVGGWTVVYLTDLVLKSSVYFKHSYEDWLENNGLSISPFHIRWQTAVFNRAFYSWGRRKARMLYQWFNFGMVFGVIAMFSSFFLLGKTLMQTLAQMMADSPSSYSSSSSSSSSSSSSSSSSSSSSSSLHNEQVLQVVVPGINLPVNQLTYFFTAVLISGVVHEIGHGIAAIREQVRFNGFGIFLFIIYPGAFVDLFTTHLQLISPVQQLRIFCAGIWHNFVLALLGILALVLLPVILLPFYYTGVGVLITEVAEDSPAIGPRGLFVGDLVTHLQDCPVTNVQDWNECLDTIAYEPQIGYCISASTLQQLSFPVRAYKRLDGSTECCNNHSLTDVCFSYRNNFNKRLHTCLPARKAVEATQVCRTNKDCKKSSSSSFCIIPSLETHTRLIKVKHPPQIDMLYVGHPLHLHYTVSITSFIPRFNFLSIDLPVVVETFVKYLISLSGALAIVNAVPCFALDGQWILNSFLDATLTSVIGDNDVKDLIGFFILLGGSVLLAANVTLGLWMVTAR [MBTPS2] | -0.23 | -0.109 | -0.0953 | -0.633
MPTNFTVVPVEAHADGGGDETAERTEAPGTPEGPEPERPSPGDGNPRENSPFLNNVEVEQESFFEGKNMALFEEEMDSNPMVSSLLNKLANYTNLSQGVVEHEEDEESRRREAKAPRMGTFIGVYLPCLQNILGVILFLRLTWIVGVAGVLESFLIVAMCCTCTMLTAISMSAIATNGVVPAGGSYYMISRSLGPEFGGAVGLCFYLGTTFAGAMYILGTIEIFLTYISPGAAIFQAEAAGGEAAAMLHNMRVYGTCTLVLMALVVFVGVKYVNKLALVFLACVVLSILAIYAGVIKSAFDPPDIPVCLLGNRTLSRRSFDACVKAYGIHNNSATSALWGLFCNGSQPSAACDEYFIQNNVTEIQGIPGAASGVFLENLWSTYAHAGAFVEKKGVPSVPVAEESRASALPYVLTDIAASFTLLVGIYFPSVTGIMAGSNRSGDLKDAQKSIPTGTILAIVTTSFIYLSCIVLFGACIEGVVLRDKFGEALQGNLVIGMLAWPSPWVIVIGSFFSTCGAGLQSLTGAPRLLQAIARDGIVPFLQVFGHGKANGEPTWALLLTVLICETGILIASLDSVAPILSMFFLMCYLFVNLACAVQTLLRTPNWRPRFKFYHWTLSFLGMSLCLALMFICSWYYALSAMLIAGCIYKYIEYRGAEKEWGDGIRGLSLNAARYALLRVEHGPPHTKNWRPQVLVMLNLDAEQAVKHPRLLSFTSQLKAGKGLTIVGSVLEGTYLDKHMEAQRAEENIRSLMSTEKTKGFCQLVVSSSLRDGMSHLIQSAGLGGLKHNTVLMAWPASWKQEDNPFSWKNFVDTVRDTTAAHQALLVAKNVDSFPQNQERFGGGHIDVWWIVHDGGMLMLLPFLLRQHKVWRKCRMRIFTVAQVDDNSIQMKKDLQMFLYHLRISAEVEVVEMVENDISAFTYERTLMMEQRSQMLKQMQLSKNEQEREAQLIHDRNTASHTAAAARTQAPPTPDKVQMTWTREKLIAEKYRSRDTSLSGFKDLFSMKPDQSNVRRMHTAVKLNGVVLNKSQDAQLVLLNMPGPPKNRQGDENYMEFLEVLTEGLNRVLLVRGGGREVITIYS [SLC12A7] | -0.103 | -0.0793 | 0.109 | 0.0218
MEVRKLSISWQFLIVLVLILQILSALDFDPYRVLGVSRTASQADIKKAYKKLAREWHPDKNKDPGAEDKFIQISKAYEILSNEEKRSNYDQYGDAGENQGYQKQQQQREYRFRHFHENFYFDESFFHFPFNSERRDSIDEKYLLHFSHYVNEVVPDSFKKPYLIKITSDWCFSCIHIEPVWKEVIQELEELGVGIGVVHAGYERRLAHHLGAHSTPSILGIINGKISFFHNAVVRENLRQFVESLLPGNLVEKVTNKNYVRFLSGWQQENKPHVLLFDQTPIVPLLYKLTAFAYKDYLSFGYVYVGLRGTEEMTRRYNINIYAPTLLVFKEHINRPADVIQARGMKKQIIDDFITRNKYLLAARLTSQKLFHELCPVKRSHRQRKYCVVLLTAETTKLSKPFEAFLSFALANTQDTVRFVHVYSNRQQEFADTLLPDSEAFQGKSAVSILERRNTAGRVVYKTLEDPWIGSESDKFILLGYLDQLRKDPALLSSEAVLPDLTDELAPVFLLRWFYSASDYISDCWDSIFHNNWREMMPLLSLIFSALFILFGTVIVQAFSDSNDERESSPPEKEEAQEKTGKTEPSFTKENSSKIPKKGFVEVTELTDVTYTSNLVRLRPGHMNVVLILSNSTKTSLLQKFALEVYTFTGSSCLHFSFLSLDKHREWLEYLLEFAQDAAPIPNQYDKHFMERDYTGYVLALNGHKKYFCLFKPQKTVEEEEAIGSCSDVDSSLYLGESRGKPSCGLGSRPIKGKLSKLSLWMERLLEGSLQRFYIPSWPELD [DNAJC16] | -0.398 | 1.48e-05 | -0.236 | -0.485
MPGPQGGRGAATMSLGKLSPVGWVSSSQGKRRLTADMISHPLGDFRHTMHVGRGGDVFGDTSFLSNHGGSSGSTHRSPRSFLAKKLQLVRRVGAPPRRMASPPAPSPAPPAISPIIKNAISLPQLNQAAYDSLVVGKLSFDSSPTSSTDGHSSYGLDSGFCTISRLPRSEKPHDRDRDGSFPSEPGLRRSDSLLSFRLDLDLGPSLLSELLGVMSLPEAPAAETPAPAANPPAPTANPTGPAANPPATTANPPAPAANPSAPAATPTGPAANPPAPAASSTPHGHCPNGVTAGLGPVAEVKSSPVGGGPRGPAGPALGRHWGAGWDGGHHYPEMDARQERVEVLPQARASWESLDEEWRAPQAGSRTPVPSTVQANTFEFADAEEDDEVKV [CDC42EP1] | 0.536 | 0.0734 | -0.817 | -1.35
BMS1 | -2.43 | 0.919 | -1.95 | -3.51

— the supplement of paper PMC5998384
